# Data from PMC12416549 (2024).
# T1: TNFR1 (Homo sapiens, UniProt P19438)
# T1 chain: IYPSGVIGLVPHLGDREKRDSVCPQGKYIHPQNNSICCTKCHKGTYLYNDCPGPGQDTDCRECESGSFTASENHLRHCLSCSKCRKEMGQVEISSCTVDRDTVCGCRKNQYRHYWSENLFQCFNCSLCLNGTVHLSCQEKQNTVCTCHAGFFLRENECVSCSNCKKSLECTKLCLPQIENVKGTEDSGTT
# Molecular target: T1, TNFR1
# Assay: yeast display SC50
row,apparent Kd (screen) [nM],Binder
1,11.4,V95Q (designed binder) SMEEEVEKAAKEYEKKKKEAIEKHLEKLKAKDKEAAERFLKELEEAAKEYAKDEAKTMSEEEAKRRAKKYKEKVLLSELSEEEQKEIKEAEEKLQRTILKYVEEAAK
2,2.73,K107Y (designed binder) SMEEEVEKAAKEYEKKKKEAIEKHLEKLKAKDKEAAERFLKELEEAAKEYAKDEAKTMSEEEAKRRAKKYKEKVLLSELSEEEQKEIKEAEEKLVRTILKYVEEAAY
3,11.4,V95H (designed binder) SMEEEVEKAAKEYEKKKKEAIEKHLEKLKAKDKEAAERFLKELEEAAKEYAKDEAKTMSEEEAKRRAKKYKEKVLLSELSEEEQKEIKEAEEKLHRTILKYVEEAAK
4,1.05,K85V (designed binder) SMEEEVEKAAKEYEKKKKEAIEKHLEKLKAKDKEAAERFLKELEEAAKEYAKDEAKTMSEEEAKRRAKKYKEKVLLSELSEEEQVEIKEAEEKLVRTILKYVEEAAK
5,0.446,A105G (designed binder) SMEEEVEKAAKEYEKKKKEAIEKHLEKLKAKDKEAAERFLKELEEAAKEYAKDEAKTMSEEEAKRRAKKYKEKVLLSELSEEEQKEIKEAEEKLVRTILKYVEEGAK

# Continued, binder first:
row,Binder,apparent Kd (screen) [nM]
1,A9K (designed binder) SMEEEVEKKAKEYEKKKKEAIEKHLEKLKAKDKEAAERFLKELEEAAKEYAKDEAKTMSEEEAKRRAKKYKEKVLLSELSEEEQKEIKEAEEKLVRTILKYVEEAAK,0.446
2,A10P (designed binder) SMEEEVEKAPKEYEKKKKEAIEKHLEKLKAKDKEAAERFLKELEEAAKEYAKDEAKTMSEEEAKRRAKKYKEKVLLSELSEEEQKEIKEAEEKLVRTILKYVEEAAK,11.4
3,E12H (designed binder) SMEEEVEKAAKHYEKKKKEAIEKHLEKLKAKDKEAAERFLKELEEAAKEYAKDEAKTMSEEEAKRRAKKYKEKVLLSELSEEEQKEIKEAEEKLVRTILKYVEEAAK,0.49
4,S77L (designed binder) SMEEEVEKAAKEYEKKKKEAIEKHLEKLKAKDKEAAERFLKELEEAAKEYAKDEAKTMSEEEAKRRAKKYKEKVLLLELSEEEQKEIKEAEEKLVRTILKYVEEAAK,7.07
5,K8M (designed binder) SMEEEVEMAAKEYEKKKKEAIEKHLEKLKAKDKEAAERFLKELEEAAKEYAKDEAKTMSEEEAKRRAKKYKEKVLLSELSEEEQKEIKEAEEKLVRTILKYVEEAAK,1.05
6,E37T (designed binder) SMEEEVEKAAKEYEKKKKEAIEKHLEKLKAKDKEAATRFLKELEEAAKEYAKDEAKTMSEEEAKRRAKKYKEKVLLSELSEEEQKEIKEAEEKLVRTILKYVEEAAK,0.539
7,K27H (designed binder) SMEEEVEKAAKEYEKKKKEAIEKHLEHLKAKDKEAAERFLKELEEAAKEYAKDEAKTMSEEEAKRRAKKYKEKVLLSELSEEEQKEIKEAEEKLVRTILKYVEEAAK,0.446
8,A20K (designed binder) SMEEEVEKAAKEYEKKKKEKIEKHLEKLKAKDKEAAERFLKELEEAAKEYAKDEAKTMSEEEAKRRAKKYKEKVLLSELSEEEQKEIKEAEEKLVRTILKYVEEAAK,0.446
9,V74Y (designed binder) SMEEEVEKAAKEYEKKKKEAIEKHLEKLKAKDKEAAERFLKELEEAAKEYAKDEAKTMSEEEAKRRAKKYKEKYLLSELSEEEQKEIKEAEEKLVRTILKYVEEAAK,9.41
